From patent US7279149B2, “Amino acid composition with increased blood brain barrier permeability” (Mayo Foundation for Medical Education and Research, priority 2003, dated 2007)

Tests used:
[1] = target: T1, amyloid plaques in APP, PS1 mouse brain (Homo sapiens, UniProt P05067); settings: PS1 mouse brains ex vivo following IV injection (Poduslo 2002); cited from earlier work
T1 construct: host or cells: APP, PS1 mouse brain (earlier studies: Wengenack 2000; Poduslo 2002)

[2] = test system: amyloid plaques in human AD temporal lobe cortex sections; test: Labeling of amyloid plaques in human AD brain sections in vitro (emulsion autoradiography); type: binding
Experimental: (§1) f. Labeling of Amyloid Plaques in Human AD and APP, PS1 Mouse Brain Sections In Vitro with Diamine- and Gadolinium-Substituted Aβ30 Peptides. HPLC-purified ^125I-Aβ40, ^125I-Aβ30, ^125I-[N-4ab/Q-4ab]Aβ30, ^125I-Gd[N-4ab/Q-4ab]Aβ30, or buffer was incubated with sections of unfixed AD temporal lobe cortex using the same procedure we used previously (Wengenack, T. M., et al., Neuroscience 101:939–944, 2000). Briefly, the 15 μm-sections were incubated for 3 hours at RT with 100 pM radioiodinated peptide or alone in 250 μl of TBS (50 mM Tris HCl, 138 mM sodium chloride, pH 7.0) containing 0.1% BSA, 0.6 mg/ml magnesium chloride, 0.04 mg/ml bacitracin, 0.002 mg/ml chymostatin, and 0.004 mg/ml leupeptin. The sections then underwent immunohistochemistry (IH) for amyloid using an anti-Aβ monoclonal mouse antibody (4G8, 1:1000, Signet Laboratories, Dedham, Mass.). Next, the sections were dipped in an autoradiographic emulsion (Type NTB-3, Kodak, Rochester, N.Y.) for direct comparison of ^125I-labeled amyloid deposits to anti-Aβ IH. The slides were dipped in emulsion, exposed for various durations, and developed according to the instructions. The sections were dehydrated with successive changes of ethanol and xylene and then coverslipped.

[3] = target: T2, amyloid plaques in APP, PS1 mouse brain sections (Homo sapiens, UniProt P05067); test: Labeling of amyloid plaques in APP, PS1 transgenic mouse brain sections in vitro; type: binding
T2 construct: from tissue; host or cells: brain of APP (Tg2576) x PS1 (M146L6.2) double transgenic mice
Experimental: as §1, with “coverslipped. […]” for “coverslipped.”

[4] = target: T3, amyloid plaques in APP, PS1 mice (Homo sapiens, UniProt P05067); settings: 200 μg, PS1 mice at 27 weeks of age (Wengenack 2000); cited from earlier work
T3 construct: host or cells: APP, PS1 mouse brain (earlier studies: Wengenack 2000; Poduslo 2002)

[5] = target: T4, amyloid plaques in APP, PS1 transgenic mouse brain (Homo sapiens, UniProt P05067); test: Labeling of amyloid plaques in APP, PS1 transgenic mouse brain in vivo after IV injection; settings: 21-month old APP, PS1 mice, 750 μg IV, four hours
T4 construct: from tissue; host or cells: brain of APP (Tg2576) x PS1 (M146L6.2) double transgenic mice
Experimental: a. Subjects. These evaluations were performed using transgenic mice that express two mutant human proteins associated with familial AD and have been described in detail elsewhere (Holcomb, L., et al., Nature Med. 4:97–100, 1998). Hemizygous transgenic mice (Tg2576) expressing mutant human amyloid precursor protein (APP695) (Hsiao, K., et al., Science 274:99–102, 1996) were mated with a second strain of hemizygous transgenic mice (M146L6.2) expressing mutant human presenilin 1 (PS1) (Holcomb, L., et al., supra, 1998). The animals were genotyped for the expression of both transgenes by a PCR method using a sample of mouse-tail DNA. […]
g. […] Silver grains from sections exposed for 6 days and 2 weeks were quantitated using unbiased, stereological techniques. Sections exposed for 4 or 8 weeks were somewhat overexposed such that over many of the plaques the exposed silver grains had become confluent could not be counted accurately. Silver grains were counted over plaques in three sections from each animal in the retrosplenial cortex and CA1 region of the hippocampus using a 10-μm×10-μm dissector at 400×. The mean background level of exposed silver grains was also determined for each section. The results were expressed as the mean number of silver grains/100 μm^2 minus the background. […]

T1 sequence (P05067 672-711 limits assumed): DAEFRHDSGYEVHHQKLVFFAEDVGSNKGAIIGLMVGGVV
T2 sequence (P05067 672-711 limits assumed): as above
T4 sequence (P05067 672-711 limits assumed): as above
T3 sequence (P05067 672-711 limits assumed): as above

Substance | contrast enhancement of plaques during MRI [1] | labeling of neuritic plaques ([2]; 100 pM radioiodinated peptide, 3 hours at RT, unfixed human AD temporal lobe cortex sections) | labeling of small amyloid deposits ([2]; 100 pM radioiodinated peptide, human AD sections) | exposure time required to detect exposed silver grains ([2]; human AD sections, equal amounts of peptide (100 pM)) | labeling of neuritic plaques ([3]; 100 pM, unfixed APP) | duration of exposure to achieve a detectable amount of silver grains ([3]; APP, equal amounts of peptide) | labeling of plaques in vivo, previous study [4] | labeling of plaques in vivo [5]
(PUT-)Gd-Aβ40: polyamine (putrescine)-modified Gd-Aβ40 of a previous study | provide contrast enhancement of plaques |  |  |  |  |  |  | 
Gd-Aβ40: Gd-DTPA substituted Aβ40 of a previous study | not to provide contrast enhancement of plaques |  |  |  |  |  |  | 
Aβ40: human amyloid-β peptide Aβ40, radioiodinated; served as a positive control |  | labeled most dense-core, neuritic type plaques | labeled only a few | 7 days | labeled most of the neuritic plaques | one | did not label plaques | also labeled plaques in vivo
